# Values of other authors, collected in PMC9453958.
# Biological target: His64 (UniProt position 63, ILNNGHAFNVE)
# Assay: kinetics
# Settings: wild-type zinc enzyme during catalysis
substance,measurement,value
Carbonic anhydrase II (HCA II) (Homo sapiens),pKa,7.2 ± 0.1
